Experimental data taken from patent publication US20200121712A1, “AGENT TO BE APPLIED TO OPHTHALMIC DEVICE” (SEIKAGAKU CORPORATION, priority 2015, published 2020).

Test system: mucin
Assay: Viscosity increasing effect by interaction with mucin (rotatory viscometer)
Format: physicochemical
Conditions: for rate of increase in viscosity (increase in value of viscosity divided by viscosity of sample 3): 1.0 w/v % mixed with 20 w/v % mucin solution (final concentration 0.5 w/v %)
Experimental: In general, with respect to a film of a lubricant formed on a friction surface for reducing friction under the maintained state of fluid friction, the higher the viscosity of the lubricant, the higher the stability of the film of the lubricant. Therefore, the friction reducing effect of the cinnamic acid derivative was evaluated using, as an index, the increase in viscosity due to the interaction of the derivative with mucin contained in the tear fluid.
HA-3APC prepared in Example 1 was dissolved in PBS (pH 7.4) to thereby prepare solutions having concentrations of 1 w/v %, 0.5 w/v % and 0.25 w/v %.
Similarly, HA was dissolved in PBS (pH 7.4) to thereby prepare an HA solution having a concentration of 1 w/v %.
0.4 mL of each of these samples (1 w/v % HA-3APC, 0.5 w/v % HA-3APC, 0.25 w/v % HA-3APC and 1 w/v % HA) having added thereto 0.4 mL of 20 w/v % mucin was sample 1 for measurement.
A sample of 0.4 mL of 20 w/v % mucin having added thereto 0.4 mL of PBS was sample 2 for measurement.
A sample prepared in substantially the same manner as in sample 1 for measurement except that 0.4 mL of PBS was added in place of mucin was sample 3 for measurement.
Each sample for measurement was subjected, immediately after thorough mixing, to measurement of viscosity (shear rate: 100 S^−1, temperature: 35° C.) using a rotatory viscometer (ADVANCED RHEOMETER (TA Instruments)), and increase in value of viscosity was obtained by the following formula.
Increase in value of viscosity=μ1−μ2−μ3
μ1: Viscosity of sample 1 for measurement
μ2: Viscosity of sample 2 for measurement
μ3: Viscosity of sample 3 for measurement
Comparison of the strength of the interaction with mucin was carried out between HA and HA-3APC based on the standardized rate of increase in viscosity obtained by dividing the increase in value of viscosity with the viscosity of sample 3 for measurement. Such a means for standardization is frequently used in comparison of interactions with mucin among different test substances (for example, J. Ocul Pharmacol Ther. 2007.23(6): 541-50).

Substance | increase in value of viscosity (strength of interaction with mucin) (0.25, 0.5 and 1.0 w/v % mixed with 20 w/v % mucin (final 0.125, 0.25, 0.5 w/v %), shear rate 100 S^-1, 35° C.) | rate of increase in viscosity relative to that of HA (1.0 w/v % (final concentration 0.5 w/v %) with 20 w/v % mucin) | rate of increase in viscosity (increase in value of viscosity divided by viscosity of sample 3) (shear rate 100 S^-1, 35° C.)
HA having covalently bonded thereto a cinnamic acid aminopropyl ester [HA-3APC] | increased depending on the concentration | about 1.5 times | 3.65
hyaluronic acid [HA, reference compound] |  |  | 2.49
